Measurements: article PMC9023267

T1: Mtr4ΔF (fist-less) (Saccharomyces cerevisiae, UniProt P47047 1-666+=GGG+814-1073, internal_change)
T1 sequence: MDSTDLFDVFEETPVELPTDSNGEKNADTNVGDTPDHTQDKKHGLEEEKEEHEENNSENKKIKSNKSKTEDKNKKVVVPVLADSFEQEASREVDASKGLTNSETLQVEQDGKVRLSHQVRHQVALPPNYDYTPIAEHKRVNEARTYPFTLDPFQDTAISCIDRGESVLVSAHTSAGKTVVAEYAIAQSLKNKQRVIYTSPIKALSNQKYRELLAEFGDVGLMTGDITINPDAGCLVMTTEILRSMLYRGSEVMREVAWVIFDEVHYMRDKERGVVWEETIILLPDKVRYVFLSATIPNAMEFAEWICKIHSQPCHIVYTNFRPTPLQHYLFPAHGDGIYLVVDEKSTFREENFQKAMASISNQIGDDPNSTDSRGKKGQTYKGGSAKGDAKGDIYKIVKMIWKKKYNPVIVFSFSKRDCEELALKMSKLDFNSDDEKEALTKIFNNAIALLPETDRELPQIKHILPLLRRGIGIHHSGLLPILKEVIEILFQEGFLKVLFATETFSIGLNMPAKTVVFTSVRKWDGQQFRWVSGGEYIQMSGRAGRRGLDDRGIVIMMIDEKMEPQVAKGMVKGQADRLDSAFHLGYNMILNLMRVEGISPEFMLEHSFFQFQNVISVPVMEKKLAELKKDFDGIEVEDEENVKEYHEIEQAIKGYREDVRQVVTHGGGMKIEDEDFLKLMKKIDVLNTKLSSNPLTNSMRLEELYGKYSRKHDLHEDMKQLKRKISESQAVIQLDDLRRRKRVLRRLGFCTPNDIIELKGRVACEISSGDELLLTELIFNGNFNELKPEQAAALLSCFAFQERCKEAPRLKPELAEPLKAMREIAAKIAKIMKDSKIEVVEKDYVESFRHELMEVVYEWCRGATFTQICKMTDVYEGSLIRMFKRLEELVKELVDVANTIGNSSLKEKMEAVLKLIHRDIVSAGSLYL

T2: Mtr4WT (Saccharomyces cerevisiae, UniProt P47047 1-1073)
T2 sequence: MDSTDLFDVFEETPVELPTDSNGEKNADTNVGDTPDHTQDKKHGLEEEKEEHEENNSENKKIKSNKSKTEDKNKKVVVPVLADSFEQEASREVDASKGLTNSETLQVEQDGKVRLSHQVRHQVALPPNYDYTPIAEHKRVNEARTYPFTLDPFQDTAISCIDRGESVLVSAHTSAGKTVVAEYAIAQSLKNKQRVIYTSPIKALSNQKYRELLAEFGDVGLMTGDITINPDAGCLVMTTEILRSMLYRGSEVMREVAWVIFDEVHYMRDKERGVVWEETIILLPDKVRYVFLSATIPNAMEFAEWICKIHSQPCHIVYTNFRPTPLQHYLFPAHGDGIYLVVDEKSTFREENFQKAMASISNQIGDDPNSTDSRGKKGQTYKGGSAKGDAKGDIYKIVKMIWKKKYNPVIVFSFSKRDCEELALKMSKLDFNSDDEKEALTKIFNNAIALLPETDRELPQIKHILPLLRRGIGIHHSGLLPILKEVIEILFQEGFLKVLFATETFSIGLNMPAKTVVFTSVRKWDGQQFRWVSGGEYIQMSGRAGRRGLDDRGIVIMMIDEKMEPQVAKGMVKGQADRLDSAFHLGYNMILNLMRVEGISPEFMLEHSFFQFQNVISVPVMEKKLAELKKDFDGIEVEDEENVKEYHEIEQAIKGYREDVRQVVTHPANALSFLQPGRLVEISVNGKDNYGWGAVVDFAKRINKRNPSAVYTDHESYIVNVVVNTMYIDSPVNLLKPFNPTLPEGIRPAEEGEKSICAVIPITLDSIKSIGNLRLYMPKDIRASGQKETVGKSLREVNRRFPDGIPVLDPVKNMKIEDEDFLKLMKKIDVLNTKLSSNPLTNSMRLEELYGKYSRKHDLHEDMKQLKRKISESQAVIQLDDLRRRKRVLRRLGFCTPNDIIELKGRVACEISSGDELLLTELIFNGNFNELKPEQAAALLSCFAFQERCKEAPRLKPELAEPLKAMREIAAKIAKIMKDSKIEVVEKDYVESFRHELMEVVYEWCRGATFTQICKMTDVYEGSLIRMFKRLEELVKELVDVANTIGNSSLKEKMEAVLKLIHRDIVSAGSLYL

B1: tRNAiMet (structured_RNA)
RNA: GGGGUUCACUGCCGUAUAGGCAGAGCGCCGUGGCGCAGUGGAAGCGCGCAGGGCUCAUAACCCUGAUGUCCUCGGAUCGAAACCGAGCGGCGCCAAAAAAAAACGC
modifications: none (hypomodified, in vitro transcript)
B2: dsRNA32 (dsRNA)
RNA 1: GCAGGAGCCUAGCUGAAAGAUGUCCUCGGAUCGACGCGUCUUUACGGUGCUUAAAAA
RNA 2: AGCACCGUAAAGACGC
B3: dsRNA16 (dsRNA)
RNA 1: GCGUCUUUACGGUGCUUAAAAA
RNA 2: AGCACCGUAAAGACGC

What was measured:
Mtr4ΔF (fist-less) [1] = molecular target: T1, Mtr4ΔF (fist-less); test: HDX-MS
Mtr4WT = molecular target: T2, Mtr4WT; test: EMSA
Mtr4ΔF (fist-less) [2] = molecular target: T1, Mtr4ΔF (fist-less); test: EMSA

| Binder | binding result (Mtr4ΔF (fist-less) [1]) | Kd (Mtr4WT) | Kd (Mtr4ΔF (fist-less) [2]) |
| --- | --- | --- | --- |
| B1 | binds | 270 ± 20 nM |  |
| B2 | binds | 570 ± 30 nM |  |
| GCGUCUUUACGGUGCUUAAAACAAAACAAAACAAAACAAAAA (ssRNA) [ssRNA42] | binds | 420 ± 40 nM |  |
| B3 |  | 1140 ± 80 nM | 1420 ± 220 nM |
